Laboratory results: paper PMC9888213, “The Mobility of the Cap Domain Is Essential for the Substrate Promiscuity of a Family IV Esterase from Sorghum Rhizosphere Microbiome” (Applied and Environmental Microbiology, 2023)

Experiments:
Assay in all cases: purified protein
Type in all cases: biochemical, uncultured Sphingomonas sp.
[1] = tested on: T1, CC(=O)Oc1ccc([N+](=O)[O-])cc1; details: 50 mM potassium phosphate pH 7.0, 0.3% Triton X-100, 30 °C, up to 5% DMSO-acetonitrile
T1 construct: full length, 324 residues, N-terminal His6 tag (p15TV-L), expressed in E. coli BL21(DE3), Ni-NTA purified; homodimer

[2] = tested on: T2, CCCC(=O)Oc1ccc([N+](=O)[O-])cc1; details: 50 mM potassium phosphate pH 7.0, 0.3% Triton X-100, 30 °C, up to 5% DMSO-acetonitrile
T2 construct: full length, 324 residues, N-terminal His6 tag (p15TV-L), expressed in E. coli BL21(DE3), Ni-NTA purified; homodimer

[3] = tested on: T3, CCCCCCCCCCCC(=O)Oc1ccc([N+](=O)[O-])cc1; details: 50 mM potassium phosphate pH 7.0, 0.3% Triton X-100, 30 °C, up to 7.5% DMSO-acetonitrile
T3 construct: full length, 324 residues, N-terminal His6 tag (p15TV-L), expressed in E. coli BL21(DE3), Ni-NTA purified; homodimer

Question: Which Km [1] does the source give for EH0 (uncultured Sphingomonas sp.) here?
Answer: 1610 ± 120 µM

Question: And the Vmax [1]?
Answer: 292 µM/min

Question: What about the kcat [1] of the same substance?
Answer: 0.694 ± 0.0182 s⁻¹

Question: What about the kcat/Km [1] of the same substance?
Answer: 430 M⁻¹ s⁻¹

Question: What about the Km [2] of the same substance?
Answer: 1080 ± 180 µM

Question: And the Vmax [2]?
Answer: 253 µM/min

Question: And the kcat [2]?
Answer: 0.602 ± 0.033 s⁻¹

Question: And the kcat/Km [2]?
Answer: 558 M⁻¹ s⁻¹

Question: And the Km [3]?
Answer: 1000 ± 280 µM

Question: What about the Vmax [3] of the same substance?
Answer: 25.6 µM/min

Question: And the kcat [3]?
Answer: 0.0608 ± 0.00433 s⁻¹

Question: What about the kcat/Km [3] of the same substance?
Answer: 61 M⁻¹ s⁻¹
